Drawing on the Human Domainome abundance scans (Beltran et al. 2025), this text covers abundance fitness for 40 variants.

The labels stand for the following.
B1: RNA-binding E3 ubiquitin-protein ligase MEX3C, residues 325 to 391; numbered along this chain, Q5U5Q3 (parent)
chain: GQTTVQVRVPYRVVGLVVGPKGATIKRIQQQTHTYIVTPSRDKEPVFEVTGMPENVDRAREEIEMHI

± gives the uncertainty stated by the source.

This data set covers variants of B1. As to the kind of experiment: abundance fitness (aPCA) (normalised: wild type 0, dead -1); higher = more abundant; growth selection in yeast, the domain comes from the species named. To be noted: Homo sapiens.
For GQTTVQVRVPYRVVGLVVGPKGATIKRIQQQTHTYIVTPSRDKEPVFEVHGMPENVDRAREEIEMHI [T50H], the abundance fitness is -0.315 ± 0.19.

For GQTTVQVRVPYRVVGLVVGPKGATIKRIQQQTHTYIVTPSRDKEPVFEVEGMPENVDRAREEIEMHI [T50E], the abundance fitness was -0.835 ± 0.21.

With GQTTVQVRVPYRVVGLVVGPKGATIKRIQQQTHTYIVTPSRDKEPVFEVQGMPENVDRAREEIEMHI [T50Q], the abundance fitness is -0.624 ± 0.099.

As to GQTTVQVRVPYRVVGLVVGPKGATIKRIQQQTHTYIVTPSRDKEPVFEVIGMPENVDRAREEIEMHI [T50I], the abundance fitness is -0.494 ± 0.16.

Take GQTTVQVRVPYRVVGLVVGPKGATIKRIQQQTHTYIVTPSRDKEPVFEVFGMPENVDRAREEIEMHI [T50F]: the abundance fitness is -0.618 ± 0.16.

For the variant GQTTVQVRVPYRVVGLVVGPKGATIKRIQQQTHTYIVTPSRDKEPVFEVVGMPENVDRAREEIEMHI [T50V], the abundance fitness was -0.745 ± 0.12.

For GQTTVQVRVPYRVVGLVVGPKGATIKRIQQQTHTYIVTPSRDKEPVFEVMGMPENVDRAREEIEMHI [T50M], the abundance fitness is -0.378 ± 0.11.

For the variant GQTTVQVRVPYRVVGLVVGPKGATIKRIQQQTHTYIVTPSRDKEPVFEVKGMPENVDRAREEIEMHI [T50K], the abundance fitness is -0.52 ± 0.15.

On to GQTTVQVRVPYRVVGLVVGPKGATIKRIQQQTHTYIVTPSRDKEPVFEVWGMPENVDRAREEIEMHI [T50W], for which the abundance fitness was -0.545 ± 0.11.

Take GQTTVQVRVPYRVVGLVVGPKGATIKRIQQQTHTYIVTPSRDKEPVFEVGGMPENVDRAREEIEMHI [T50G]: the abundance fitness was -0.651 ± 0.08.

For the variant GQTTVQVRVPYRVVGLVVGPKGATIKRIQQQTHTYIVTPSRDKEPVFEVPGMPENVDRAREEIEMHI [T50P], the abundance fitness was -0.916 ± 0.33.

On to GQTTVQVRVPYRVVGLVVGPKGATIKRIQQQTHTYIVTPSRDKEPVFEVSGMPENVDRAREEIEMHI [T50S], for which the abundance fitness was -0.254 ± 0.063.

Turning to GQTTVQVRVPYRVVGLVVGPKGATIKRIQQQTHTYIVTPSRDKEPVFEVYGMPENVDRAREEIEMHI [T50Y], the abundance fitness was -0.598 ± 0.21.

As to GQTTVQVRVPYRVVGLVVGPKGATIKRIQQQTHTYIVTPSRDKEPVFEVNGMPENVDRAREEIEMHI [T50N], the abundance fitness was -0.792 ± 0.35.

GQTTVQVRVPYRVVGLVVGPKGATIKRIQQQTHTYIVTPSRDKEPVFEVTGMRENVDRAREEIEMHI [P53R]: the abundance fitness was -0.167 ± 0.05.

GQTTVQVRVPYRVVGLVVGPKGATIKRIQQQTHTYIVTPSRDKEPVFEVTGMTENVDRAREEIEMHI [P53T]: the abundance fitness was -0.375 ± 0.087.

GQTTVQVRVPYRVVGLVVGPKGATIKRIQQQTHTYIVTPSRDKEPVFEVTGMMENVDRAREEIEMHI [P53M]: the abundance fitness is -0.433 ± 0.11.

In the case of GQTTVQVRVPYRVVGLVVGPKGATIKRIQQQTHTYIVTPSRDKEPVFEVTGMKENVDRAREEIEMHI [P53K], the abundance fitness is -0.012 ± 0.1.

On to GQTTVQVRVPYRVVGLVVGPKGATIKRIQQQTHTYIVTPSRDKEPVFEVTGMGENVDRAREEIEMHI [P53G], for which the abundance fitness is -0.541 ± 0.082.

GQTTVQVRVPYRVVGLVVGPKGATIKRIQQQTHTYIVTPSRDKEPVFEVTGMDENVDRAREEIEMHI [P53D]: the abundance fitness was -0.597 ± 0.27.

Consider GQTTVQVRVPYRVVGLVVGPKGATIKRIQQQTHTYIVTPSRDKEPVFEVTGMQENVDRAREEIEMHI [P53Q], for which the abundance fitness was -0.173 ± 0.079.

As to GQTTVQVRVPYRVVGLVVGPKGATIKRIQQQTHTYIVTPSRDKEPVFEVTGMCENVDRAREEIEMHI [P53C], the abundance fitness is -0.514 ± 0.13.

Turning to GQTTVQVRVPYRVVGLVVGPKGATIKRIQQQTHTYIVTPSRDKEPVFEVTGMVENVDRAREEIEMHI [P53V], the abundance fitness was -0.734 ± 0.13.

As to GQTTVQVRVPYRVVGLVVGPKGATIKRIQQQTHTYIVTPSRDKEPVFEVTGMAENVDRAREEIEMHI [P53A], the abundance fitness is -0.141 ± 0.057.

In the case of GQTTVQVRVPYRVVGLVVGPKGATIKRIQQQTHTYIVTPSRDKEPVFEVTGMNENVDRAREEIEMHI [P53N], the abundance fitness was -0.295 ± 0.21.

In the case of GQTTVQVRVPYRVVGLVVGPKGATIKRIQQQTHTYIVTPSRDKEPVFEVTGMWENVDRAREEIEMHI [P53W], the abundance fitness is -0.871 ± 0.17.

With GQTTVQVRVPYRVVGLVVGPKGATIKRIQQQTHTYIVTPSRDKEPVFEVTGMIENVDRAREEIEMHI [P53I], the abundance fitness was -0.689 ± 0.25.

Regarding GQTTVQVRVPYRVVGLVVGPKGATIKRIQQQTHTYIVTPSRDKEPVFEVTGMFENVDRAREEIEMHI [P53F], the abundance fitness was -0.488 ± 0.16.

For GQTTVQVRVPYRVVGLVVGPKGATIKRIQQQTHTYIVTPSRDKEPVFEVTGMSENVDRAREEIEMHI [P53S], the abundance fitness is -0.279 ± 0.077.

On to GQTTVQVRVPYRVVGLVVGPKGATIKRIQQQTHTYIVTPSRDKEPVFEVTGMPDNVDRAREEIEMHI [E54D], for which the abundance fitness was -0.119 ± 0.092.

Turning to GQTTVQVRVPYRVVGLVVGPKGATIKRIQQQTHTYIVTPSRDKEPVFEVTGMPCNVDRAREEIEMHI [E54C], the abundance fitness was -0.482 ± 0.11.

As to GQTTVQVRVPYRVVGLVVGPKGATIKRIQQQTHTYIVTPSRDKEPVFEVTGMPKNVDRAREEIEMHI [E54K], the abundance fitness is -0.519 ± 0.17.

On to GQTTVQVRVPYRVVGLVVGPKGATIKRIQQQTHTYIVTPSRDKEPVFEVTGMPANVDRAREEIEMHI [E54A], for which the abundance fitness was -0.079 ± 0.053.

Turning to GQTTVQVRVPYRVVGLVVGPKGATIKRIQQQTHTYIVTPSRDKEPVFEVTGMPLNVDRAREEIEMHI [E54L], the abundance fitness is -0.325 ± 0.079.

On to GQTTVQVRVPYRVVGLVVGPKGATIKRIQQQTHTYIVTPSRDKEPVFEVTGMPFNVDRAREEIEMHI [E54F], for which the abundance fitness was -0.815 ± 0.23.

With GQTTVQVRVPYRVVGLVVGPKGATIKRIQQQTHTYIVTPSRDKEPVFEVTGMPGNVDRAREEIEMHI [E54G], the abundance fitness is -0.179 ± 0.044.

As to GQTTVQVRVPYRVVGLVVGPKGATIKRIQQQTHTYIVTPSRDKEPVFEVTGMPHNVDRAREEIEMHI [E54H], the abundance fitness was -0.332 ± 0.15.

Regarding GQTTVQVRVPYRVVGLVVGPKGATIKRIQQQTHTYIVTPSRDKEPVFEVTGMPINVDRAREEIEMHI [E54I], the abundance fitness was -0.377 ± 0.11.

Turning to GQTTVQVRVPYRVVGLVVGPKGATIKRIQQQTHTYIVTPSRDKEPVFEVTGMPMNVDRAREEIEMHI [E54M], the abundance fitness is -0.575 ± 0.15.

Take GQTTVQVRVPYRVVGLVVGPKGATIKRIQQQTHTYIVTPSRDKEPVFEVTGMPNNVDRAREEIEMHI [E54N]: the abundance fitness was -0.419 ± 0.18.
